The assay addresses T1, Flag-RFP (Flag-tagged RET finger protein) (Homo sapiens, UniProt P14373 1-513).
T1 construct: Expressed by transient transfection in HEK293 cells and tested in cell lysates by co-immunoprecipitation; also called TRIM27; pFlag-RFP; not shown: Flag tag from the pFlag vector
T1 sequence: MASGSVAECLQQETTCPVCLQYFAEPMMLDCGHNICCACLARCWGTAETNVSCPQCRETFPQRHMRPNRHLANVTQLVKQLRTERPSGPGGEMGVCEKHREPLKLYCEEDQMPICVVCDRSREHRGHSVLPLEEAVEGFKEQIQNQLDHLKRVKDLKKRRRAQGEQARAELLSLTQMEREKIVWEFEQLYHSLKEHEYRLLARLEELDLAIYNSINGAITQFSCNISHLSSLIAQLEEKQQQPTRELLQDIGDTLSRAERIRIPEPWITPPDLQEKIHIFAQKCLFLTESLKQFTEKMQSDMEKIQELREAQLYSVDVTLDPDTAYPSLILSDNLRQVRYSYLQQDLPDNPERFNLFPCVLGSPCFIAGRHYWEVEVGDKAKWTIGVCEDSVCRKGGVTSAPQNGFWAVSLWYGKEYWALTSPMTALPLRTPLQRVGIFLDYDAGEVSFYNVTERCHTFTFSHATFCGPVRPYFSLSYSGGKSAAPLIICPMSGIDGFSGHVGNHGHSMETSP
Nature of the assay: co-IP from HEK293 cells co-transfected with GFP-RFP and Flag-RFP; anti-Flag IP, anti-GFP blot. An excerpt: FIG. 7 RFP Oligomerization (a) RFP forms homo-oligomer, HEK293 cells were co-transfected with GFP-RFP and Flag-RFP, and immunoprecipitated with anti-Flag antibody followed by immunoblotting with anti-Flag and anti-GFP antibodies. Anti-HA antibody was used as mock. WCL: whole cell lysates. (b) Ring-B-box and Coiled-coil domains, but not Rfp domain, of RFP were required for its oligomerization. HEK293 cells were co-transfected with GFP-RFP and Flag tagged RFP deletion constructs, and immunoprecipitated with anti-Flag antibody. The pFlag vector was used as control. Arrow heads indicate Flag-tagged RFP constructs.

B1: GFP-RFP (other)
chain: MASGSVAECLQQETTCPVCLQYFAEPMMLDCGHNICCACLARCWGTAETNVSCPQCRETFPQRHMRPNRHLANVTQLVKQLRTERPSGPGGEMGVCEKHREPLKLYCEEDQMPICVVCDRSREHRGHSVLPLEEAVEGFKEQIQNQLDHLKRVKDLKKRRRAQGEQARAELLSLTQMEREKIVWEFEQLYHSLKEHEYRLLARLEELDLAIYNSINGAITQFSCNISHLSSLIAQLEEKQQQPTRELLQDIGDTLSRAERIRIPEPWITPPDLQEKIHIFAQKCLFLTESLKQFTEKMQSDMEKIQELREAQLYSVDVTLDPDTAYPSLILSDNLRQVRYSYLQQDLPDNPERFNLFPCVLGSPCFIAGRHYWEVEVGDKAKWTIGVCEDSVCRKGGVTSAPQNGFWAVSLWYGKEYWALTSPMTALPLRTPLQRVGIFLDYDAGEVSFYNVTERCHTFTFSHATFCGPVRPYFSLSYSGGKSAAPLIICPMSGIDGFSGHVGNHGHSMETSP
notes: RFP cDNA inserted into the pEGFP-C1 vector; also called RFP in pEGFP-C1; not shown: GFP (EGFP of the pEGFP-C1 vector) and linker
B1: the binding result is listed as “binds”.

(Values after US20130177660A1 (NATIONAL UNIVERSITY CORPORATION NAGOYA UNIVERSITY, published 2013).)
